According to article doi:10.1101/2023.04.03.535215:

Biological target: SARS-CoV-2 S protein receptor-binding domain (SARS-CoV-2) (UniProt P0DTC2)
Experiment: ELISA

For “Native human surfactant protein A (from UniProt Q8IWL2 21-248) (natural protein)”, which percent decrease of binding in 10 mM EDTA is on record?
The percent decrease of binding in 10 mM EDTA was 59%.
